# Experimental data from IntAct's records for PubMed 24510904.
# B1: Ras-related protein Rab-7L1 (Homo sapiens), O14966 (parent)
# chain: MGSRDHLFKVLVVGDAAVGKTSLVQRYSQDSFSKHYKSTVGVDFALKVLQWSDYEIVRLQLWDIAGQERFTSMTRLYYRDASACVIMFDVTNATTFSNSQRWKQDLDSKLTLPNGEPVPCLLLANKCDLSPWAVSRDQIDRFSKENGFTGWTETSVKENKNINEAMRVLIEKMMRNSTEDIMSLSTQGDYINLQTKSSSWSCC
# B2: BAG family molecular chaperone regulator 5 (Homo sapiens), Q9UL15 (parent)
# chain: MDMGNQHPSISRLQEIQKEVKSVEQQVIGFSGLSDDKNYKKLERILTKQLFEIDSVDTEGKGDIQQARKRAAQETERLLKELEQNANHPHRIEIQNIFEEAQSLVREKIVPFYNGGNCVTDEFEEGIQDIILRLTHVKTGGKISLRKARYHTLTKICAVQEIIEDCMKKQPSLPLSEDAHPSVAKINFVMCEVNKARGVLIALLMGVNNNETCRHLSCVLSGLIADLDALDVCGRTEIRNYRREVVEDINKLLKYLDLEEEADTTKAFDLRQNHSILKIEKVLKRMREIKNELLQAQNPSELYLSSKTELQGLIGQLDEVSLEKNPCIREARRRAVIEVQTLITYIDLKEALEKRKLFACEEHPSHKAVWNVLGNLSEIQGEVLSFDGNRTDKNYIRLEELLTKQLLALDAVDPQGEEKCKAARKQAVRLAQNILSYLDLKSDEWEY
# Variants of: B1
# Settings: with lrrk2_human LRRK2, Q5S007
# Sequence of lrrk2_human LRRK2, Q5S007 (Q5S007 whole entry): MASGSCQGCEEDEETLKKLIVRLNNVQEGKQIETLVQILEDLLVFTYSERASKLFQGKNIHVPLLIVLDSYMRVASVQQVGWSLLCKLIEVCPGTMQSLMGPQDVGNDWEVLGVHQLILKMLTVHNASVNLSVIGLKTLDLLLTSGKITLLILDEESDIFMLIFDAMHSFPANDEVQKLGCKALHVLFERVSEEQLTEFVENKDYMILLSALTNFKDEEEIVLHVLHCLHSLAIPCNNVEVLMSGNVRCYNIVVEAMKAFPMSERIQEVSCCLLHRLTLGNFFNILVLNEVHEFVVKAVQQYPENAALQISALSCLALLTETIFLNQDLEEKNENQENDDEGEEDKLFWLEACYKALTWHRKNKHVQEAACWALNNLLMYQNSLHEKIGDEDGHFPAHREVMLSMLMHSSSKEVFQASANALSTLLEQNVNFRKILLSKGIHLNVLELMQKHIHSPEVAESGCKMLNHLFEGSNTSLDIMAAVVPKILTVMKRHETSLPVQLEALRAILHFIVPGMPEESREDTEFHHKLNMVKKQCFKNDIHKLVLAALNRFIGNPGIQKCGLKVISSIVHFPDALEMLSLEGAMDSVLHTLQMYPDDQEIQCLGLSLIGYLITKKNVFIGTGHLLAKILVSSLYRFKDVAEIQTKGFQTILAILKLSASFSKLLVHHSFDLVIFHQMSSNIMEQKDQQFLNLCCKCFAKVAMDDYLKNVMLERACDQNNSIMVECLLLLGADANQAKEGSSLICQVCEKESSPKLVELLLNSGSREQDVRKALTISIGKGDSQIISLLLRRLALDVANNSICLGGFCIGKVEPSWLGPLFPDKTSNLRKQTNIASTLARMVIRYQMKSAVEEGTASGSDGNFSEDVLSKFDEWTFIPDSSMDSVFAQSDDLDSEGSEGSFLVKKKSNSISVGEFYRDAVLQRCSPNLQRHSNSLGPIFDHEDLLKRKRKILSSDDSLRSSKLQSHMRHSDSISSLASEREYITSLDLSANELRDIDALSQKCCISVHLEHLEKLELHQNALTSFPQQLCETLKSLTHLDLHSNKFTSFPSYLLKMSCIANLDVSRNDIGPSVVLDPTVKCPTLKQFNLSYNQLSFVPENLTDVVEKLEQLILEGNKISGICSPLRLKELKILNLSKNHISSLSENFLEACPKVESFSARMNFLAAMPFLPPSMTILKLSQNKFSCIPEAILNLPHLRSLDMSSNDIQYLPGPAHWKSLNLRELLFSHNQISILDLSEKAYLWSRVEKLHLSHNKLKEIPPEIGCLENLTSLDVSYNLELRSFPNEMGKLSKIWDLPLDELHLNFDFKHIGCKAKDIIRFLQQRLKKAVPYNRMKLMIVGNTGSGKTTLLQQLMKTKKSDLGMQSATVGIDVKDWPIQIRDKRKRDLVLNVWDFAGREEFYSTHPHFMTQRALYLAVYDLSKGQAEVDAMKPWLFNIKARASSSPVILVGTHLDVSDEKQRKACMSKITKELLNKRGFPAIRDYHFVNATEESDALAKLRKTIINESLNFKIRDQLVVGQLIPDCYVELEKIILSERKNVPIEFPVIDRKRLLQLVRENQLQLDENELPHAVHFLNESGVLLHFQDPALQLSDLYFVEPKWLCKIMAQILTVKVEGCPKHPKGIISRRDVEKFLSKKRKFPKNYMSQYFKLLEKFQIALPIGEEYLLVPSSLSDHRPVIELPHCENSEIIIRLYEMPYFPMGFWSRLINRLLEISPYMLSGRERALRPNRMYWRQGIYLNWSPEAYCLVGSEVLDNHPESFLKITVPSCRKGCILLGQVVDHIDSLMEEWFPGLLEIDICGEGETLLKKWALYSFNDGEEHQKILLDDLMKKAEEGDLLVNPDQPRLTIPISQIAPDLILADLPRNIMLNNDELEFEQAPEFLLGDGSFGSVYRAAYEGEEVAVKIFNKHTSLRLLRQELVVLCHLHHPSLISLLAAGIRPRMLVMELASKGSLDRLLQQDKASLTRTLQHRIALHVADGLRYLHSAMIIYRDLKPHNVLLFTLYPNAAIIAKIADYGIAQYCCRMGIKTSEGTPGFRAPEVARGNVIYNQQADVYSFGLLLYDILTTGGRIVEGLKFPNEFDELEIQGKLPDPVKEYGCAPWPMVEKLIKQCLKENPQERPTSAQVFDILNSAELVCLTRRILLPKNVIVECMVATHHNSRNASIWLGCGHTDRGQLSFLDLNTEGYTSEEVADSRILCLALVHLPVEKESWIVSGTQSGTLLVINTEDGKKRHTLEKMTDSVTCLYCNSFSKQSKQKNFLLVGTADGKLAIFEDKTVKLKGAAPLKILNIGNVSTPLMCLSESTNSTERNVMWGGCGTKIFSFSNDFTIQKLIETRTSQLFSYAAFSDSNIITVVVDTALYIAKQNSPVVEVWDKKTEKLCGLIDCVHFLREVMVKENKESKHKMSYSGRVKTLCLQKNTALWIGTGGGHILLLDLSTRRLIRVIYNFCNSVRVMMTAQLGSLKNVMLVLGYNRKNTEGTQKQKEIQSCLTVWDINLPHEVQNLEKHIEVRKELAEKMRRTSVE
row,effect of a mutation on the interaction,Variant
1,increasing interaction,MGSRDHLFKVLVVGDAAVGKTSLVQRYSQDSFSKHYKSTVGVDFALKVLQWSDYEIVRLQLWDIAGLERFTSMTRLYYRDASACVIMFDVTNATTFSNSQRWKQDLDSKLTLPNGEPVPCLLLANKCDLSPWAVSRDQIDRFSKENGFTGWTETSVKENKNINEAMRVLIEKMMRNSTEDIMSLSTQGDYINLQTKSSSWSCC [Q67L]
2,increasing interaction,MGSRDHLFKVLVVGDAAVGKNSLVQRYSQDSFSKHYKSTVGVDFALKVLQWSDYEIVRLQLWDIAGQERFTSMTRLYYRDASACVIMFDVTNATTFSNSQRWKQDLDSKLTLPNGEPVPCLLLANKCDLSPWAVSRDQIDRFSKENGFTGWTETSVKENKNINEAMRVLIEKMMRNSTEDIMSLSTQGDYINLQTKSSSWSCC [T21N]

# Variants of: B1
# Settings: with lrrk2_human LRRK2, Q5S007
# Remark: another data set of the same source
row,effect of a mutation on the interaction,Variant
1,disrupting interaction,MGSRDHLFKVLVVGDAAVGKTSLVQRYSQDSFSKHYKSTVGVDFALKVLQWSDYEIVRLQLWDIAGLERFTSMTRLYYRDASACVIMFDVTNATTFSNSQRWKQDLDSKLTLPNGEPVPCLLLANKCDLSPWAVSRDQIDRFSKENGFTGWTETSVKENKNINEAMRVLIEKMMRNSTEDIMSLSTQGDYINLQTKSSSWSCC [Q67L]

# Variants of: B2
# Settings: with lrrk2_human LRRK2, Q5S007
row,effect of a mutation on the interaction,Variant
1,decreasing interaction,MDMGNQHPSISRLQEIQKEVKSVEQQVIGFSGLSDDKNYKKLERILTKQLFEIASVDTEGKGDIQQAAKRAAQETERLLKELEQNANHPHRIEIQNIFEEAQSLVREKIVPFYNGGNCVTDEFEEGIQDIILRLTHVKTGGKISLRKARYHTLTKICAVQEIIEDCMKKQPSLPLSEDAHPSVAKINFVMCEVNKARGVLIALLMGVNNNETCRHLSCVLSGLIADLAALDVCGRTEIRNYAREVVEDINKLLKYLDLEEEADTTKAFDLRQNHSILKIEKVLKRMREIKNELLQAQNPSELYLSSKTELQGLIGQLAEVSLEKNPCIREAARRAVIEVQTLITYIDLKEALEKRKLFACEEHPSHKAVWNVLGNLSEIQGEVLSFDGNRTDKNYIRLEELLTKQLLALAAVDPQGEEKCKAAAKQAVRLAQNILSYLDLKSDEWEY [D54A;R68A;D228A;R242A;D318A;R332A;D410A;R424A]
